Sequences and labels used below:
B1: FIP3_(206–270), EF-hand pair of Rab11 family-interacting protein 3 (domain or fragment, human, UniProt O75154-1 206-270, looked up)
chain: RLRAVFDALDGDGDGFVRIEDFIQFATVYGAEQVKDLTKYLDPSGLGVISFEDFYQGITAIRNGD
notes: Cloned into pMAL-c2X
B2: MBP-CRACR2a_(47–122), EF-hand pair of calcium release-activated calcium channel regulator 2A (domain or fragment, human, UniProt Q9BSW2-1 47-122, looked up)
chain: GQLVMLRKAQEFFQTCDAEGKGFIARKDMQRLHKELPLSLEELEDVFDALDADGNGYLTPQEFTTGFSHFFFSQNN
notes: Cloned into pMAL-c2X; the MBP tag was not removed for the ITC experiments; also called Ca^2+-CRACR2a; not shown: MBP, N-terminal, kept
B3: LIC1_(433–458), amphipathic helix of the dynein light intermediate chain-1 (peptide, UniProt Q9Y6G9 433-458, looked up)
peptide: NMKAGATSEGVLANFFNSLLSKKTGS
notes: Its concentration was determined with fluorescamine-labeled peptide; also called LIC1 helix; source: peptide after reverse-phase purification
B4: NIN_(1–87), first EF-hand pair of Ninein (domain or fragment, human, UniProt Q8N4C6-1 1-87, looked up)
chain: MDEVEQDQHEARLKELFDSFDTTGTGSLGQEELTDLCHMLSLEEVAPVLQQTLLQDNLLGRVHFDQFKEALILILSRTLSNEEHFQE
notes: NIN (Ninein), human, UniProt Q8N4C6-1, residues 1-87 (EF-hand pair); Cloned into pMAL-c2X

What all share (conditions): both partners purified
Assay [1] deals with T1, MBP-LIC1FL, full-length dynein light intermediate chain-1 (human, UniProt Q9Y6G9 1-523).
T1 construct: cytoplasmic dynein-1 light intermediate chain-1 (LIC1), human, full length; also called MBP-LICFL; full-length LIC1
T1 sequence (Q9Y6G9 whole entry): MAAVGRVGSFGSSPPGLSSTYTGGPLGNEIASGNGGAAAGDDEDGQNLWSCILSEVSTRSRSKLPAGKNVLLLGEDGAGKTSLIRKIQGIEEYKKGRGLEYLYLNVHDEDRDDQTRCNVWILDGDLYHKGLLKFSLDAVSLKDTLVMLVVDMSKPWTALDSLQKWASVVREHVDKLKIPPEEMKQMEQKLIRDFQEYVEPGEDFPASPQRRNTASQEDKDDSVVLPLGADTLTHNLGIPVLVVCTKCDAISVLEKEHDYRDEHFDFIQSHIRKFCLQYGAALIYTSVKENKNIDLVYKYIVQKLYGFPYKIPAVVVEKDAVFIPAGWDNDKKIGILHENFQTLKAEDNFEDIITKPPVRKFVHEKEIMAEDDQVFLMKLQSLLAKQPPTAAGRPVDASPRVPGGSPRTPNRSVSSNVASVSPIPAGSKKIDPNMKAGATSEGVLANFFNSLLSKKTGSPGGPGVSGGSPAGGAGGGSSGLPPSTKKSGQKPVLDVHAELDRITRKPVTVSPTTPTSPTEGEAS
Kind of assay: ITC; EF-hand pairs titrated into MBP-LIC1FL; 20 mM HEPES (pH 7.5), 100 mM NaCl, 0.5 mM TCEP, 5 mM CaCl2; 20 or 30 °C.

For assay [2], the target named is B2. Put plainly: ITC; EF-hand pairs titrated into LIC1_(433–458); 20 mM HEPES (pH 7.5), 100 mM NaCl, 0.5 mM TCEP; 5 mM CaCl2 or 5 mM EGTA as indicated in the figure; 20 or 30 °C.
The target in assay [3] is B1. The assay is described as above.
Assay [4] concerns the target B4. The description is as above.

Consider B1, for which, in assay [1], the Kd is around 6.1 µM and the “stoichiometry N” value was around 1.

With B2, in assay [1], the dissociation constant Kd was around 3.6 µM and the “stoichiometry N” value is around 1.

Turning to B3, the equilibrium dissociation constant (Kd) was around 1.4 µM in assay [2], around 2 µM in assay [3] and around 5.4 µM in assay [4].

B4: in assay [1], the Kd is around 12 µM and the “stoichiometry N” value was around 1.

For the origin of these results see article PMC7655957, “A tunable LIC1-adaptor interaction modulates dynein activity in a cargo-specific manner” (Nature Communications, 2020).
